Reference: US20060058231A1 (Xencor, published 2006)

T1: BMPRIb receptor-Fc fusion (UniProt O00238 14-126)
T1 construct: BMP receptor-Fc fusion used at 5 ug/mL; also called ALK-6
T1 sequence (looked up): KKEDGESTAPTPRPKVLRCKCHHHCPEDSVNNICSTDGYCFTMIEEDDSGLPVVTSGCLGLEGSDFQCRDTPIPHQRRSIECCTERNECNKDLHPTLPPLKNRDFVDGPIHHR

T2: BMPRII receptor-Fc fusion (UniProt Q13873 27-151, limits assumed)
T2 construct: BMP receptor-Fc fusion used at 5 ug/mL
T2 sequence (looked up): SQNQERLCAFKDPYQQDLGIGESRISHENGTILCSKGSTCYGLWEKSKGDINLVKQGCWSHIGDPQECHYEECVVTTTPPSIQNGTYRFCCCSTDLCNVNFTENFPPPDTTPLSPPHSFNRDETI


Assays:
Test in all cases: ELISA-like plate assay, captured BMP-7 from conditioned media, receptor-Fc detection
[1] = molecular target: T3, BMPRIa receptor-Fc fusion (UniProt P36894 24-152, limits assumed)
T3 construct: also called ALK-3

[2] = molecular target: T4, ActRIIa receptor-Fc fusion (UniProt P27037 20-134, limits assumed)
T4 construct: BMP receptor-Fc fusion used at 5 ug/mL

[3] = molecular target: T1, BMPRIb receptor-Fc fusion
[4] = molecular target: T2, BMPRII receptor-Fc fusion

T4 sequence (P27037 20-134 limits assumed): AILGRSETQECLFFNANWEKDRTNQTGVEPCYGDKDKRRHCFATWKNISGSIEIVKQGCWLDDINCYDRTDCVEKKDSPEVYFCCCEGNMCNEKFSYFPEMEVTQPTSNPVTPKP
T3 sequence (P36894 24-152 limits assumed): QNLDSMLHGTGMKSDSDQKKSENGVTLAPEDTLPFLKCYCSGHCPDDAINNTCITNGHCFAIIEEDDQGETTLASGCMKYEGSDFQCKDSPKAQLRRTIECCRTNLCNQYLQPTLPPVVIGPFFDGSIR

Binder	BMPRIa binding (relative to wild type = 1.0) [1]	ActRIIa binding (relative to wild type = 1.0) [2]	BMPRIb binding (relative to wild type = 1.0) [3]	BMPRII binding (relative to wild type = 1.0) [4]
BMP-7 variant L90G (ligand, In conditioned media; numbering on mature BMP-7) STGGKQRSQNRSKTPKNQEALRMASVAENSSSDQRQACKKHELYVSFRDLGWQDWIIAPEGYAAYYCEGECAFPLNSYMNATNHAIVQTGVHFINPETVPKPCCAPTQLNAISVLYFDDSSNVILKKYRNMVVRACGCH	0.55 relative to wild type	0.87 relative to wild type	0.65 relative to wild type	0.28 relative to wild type
BMP-7 variant L90P (ligand, In conditioned media; numbering on mature BMP-7) STGGKQRSQNRSKTPKNQEALRMASVAENSSSDQRQACKKHELYVSFRDLGWQDWIIAPEGYAAYYCEGECAFPLNSYMNATNHAIVQTPVHFINPETVPKPCCAPTQLNAISVLYFDDSSNVILKKYRNMVVRACGCH	0.46 relative to wild type	0.75 relative to wild type	0.52 relative to wild type	0.17 relative to wild type
BMP-7 variant N76S (ligand, In conditioned media; numbering on mature BMP-7) STGGKQRSQNRSKTPKNQEALRMASVAENSSSDQRQACKKHELYVSFRDLGWQDWIIAPEGYAAYYCEGECAFPLSSYMNATNHAIVQTLVHFINPETVPKPCCAPTQLNAISVLYFDDSSNVILKKYRNMVVRACGCH	0.76 relative to wild type	0.99 relative to wild type	0.85 relative to wild type	0.98 relative to wild type
BMP-7 variant M23S (ligand, In conditioned media; numbering on mature BMP-7) STGGKQRSQNRSKTPKNQEALRSASVAENSSSDQRQACKKHELYVSFRDLGWQDWIIAPEGYAAYYCEGECAFPLNSYMNATNHAIVQTLVHFINPETVPKPCCAPTQLNAISVLYFDDSSNVILKKYRNMVVRACGCH	0.88 relative to wild type	2.2 relative to wild type	1.09 relative to wild type	2.41 relative to wild type
BMP-7 variant Q53E (ligand, In conditioned media; numbering on mature BMP-7) STGGKQRSQNRSKTPKNQEALRMASVAENSSSDQRQACKKHELYVSFRDLGWEDWIIAPEGYAAYYCEGECAFPLNSYMNATNHAIVQTLVHFINPETVPKPCCAPTQLNAISVLYFDDSSNVILKKYRNMVVRACGCH	2.3 relative to wild type	0.98 relative to wild type	2.78 relative to wild type	0.72 relative to wild type
BMP-7 variant N76A (ligand, In conditioned media; numbering on mature BMP-7) STGGKQRSQNRSKTPKNQEALRMASVAENSSSDQRQACKKHELYVSFRDLGWQDWIIAPEGYAAYYCEGECAFPLASYMNATNHAIVQTLVHFINPETVPKPCCAPTQLNAISVLYFDDSSNVILKKYRNMVVRACGCH	0.79 relative to wild type	0.96 relative to wild type	0.81 relative to wild type	0.95 relative to wild type
BMP-7 variant N76Y (ligand, In conditioned media; numbering on mature BMP-7) STGGKQRSQNRSKTPKNQEALRMASVAENSSSDQRQACKKHELYVSFRDLGWQDWIIAPEGYAAYYCEGECAFPLYSYMNATNHAIVQTLVHFINPETVPKPCCAPTQLNAISVLYFDDSSNVILKKYRNMVVRACGCH	0.46 relative to wild type	0.92 relative to wild type	0.46 relative to wild type	0.6 relative to wild type
BMP-7 variant L90H (ligand, In conditioned media; numbering on mature BMP-7) STGGKQRSQNRSKTPKNQEALRMASVAENSSSDQRQACKKHELYVSFRDLGWQDWIIAPEGYAAYYCEGECAFPLNSYMNATNHAIVQTHVHFINPETVPKPCCAPTQLNAISVLYFDDSSNVILKKYRNMVVRACGCH	0.36 relative to wild type	0.47 relative to wild type	0.55 relative to wild type	0.2 relative to wild type
BMP-7 variant N76T (ligand, In conditioned media; numbering on mature BMP-7) STGGKQRSQNRSKTPKNQEALRMASVAENSSSDQRQACKKHELYVSFRDLGWQDWIIAPEGYAAYYCEGECAFPLTSYMNATNHAIVQTLVHFINPETVPKPCCAPTQLNAISVLYFDDSSNVILKKYRNMVVRACGCH	0.94 relative to wild type	1.11 relative to wild type	0.98 relative to wild type	0.97 relative to wild type
BMP-7 variant Q53R (ligand, In conditioned media; numbering on mature BMP-7) STGGKQRSQNRSKTPKNQEALRMASVAENSSSDQRQACKKHELYVSFRDLGWRDWIIAPEGYAAYYCEGECAFPLNSYMNATNHAIVQTLVHFINPETVPKPCCAPTQLNAISVLYFDDSSNVILKKYRNMVVRACGCH	1.26 relative to wild type	0.81 relative to wild type	1.41 relative to wild type	0.96 relative to wild type
BMP-7 variant Q53D (ligand, In conditioned media; numbering on mature BMP-7) STGGKQRSQNRSKTPKNQEALRMASVAENSSSDQRQACKKHELYVSFRDLGWDDWIIAPEGYAAYYCEGECAFPLNSYMNATNHAIVQTLVHFINPETVPKPCCAPTQLNAISVLYFDDSSNVILKKYRNMVVRACGCH	2.2 relative to wild type	0.89 relative to wild type	3.74 relative to wild type	1.01 relative to wild type
BMP-7 variant Q53G (ligand, In conditioned media; numbering on mature BMP-7) STGGKQRSQNRSKTPKNQEALRMASVAENSSSDQRQACKKHELYVSFRDLGWGDWIIAPEGYAAYYCEGECAFPLNSYMNATNHAIVQTLVHFINPETVPKPCCAPTQLNAISVLYFDDSSNVILKKYRNMVVRACGCH	3.7 relative to wild type	0.99 relative to wild type	3.95 relative to wild type	1.37 relative to wild type
BMP-7 variant R48H (ligand, In conditioned media; numbering on mature BMP-7) STGGKQRSQNRSKTPKNQEALRMASVAENSSSDQRQACKKHELYVSFHDLGWQDWIIAPEGYAAYYCEGECAFPLNSYMNATNHAIVQTLVHFINPETVPKPCCAPTQLNAISVLYFDDSSNVILKKYRNMVVRACGCH	3.15 relative to wild type	1.02 relative to wild type	3.58 relative to wild type	0.58 relative to wild type
BMP-7 variant M23N (ligand, In conditioned media; numbering on mature BMP-7) STGGKQRSQNRSKTPKNQEALRNASVAENSSSDQRQACKKHELYVSFRDLGWQDWIIAPEGYAAYYCEGECAFPLNSYMNATNHAIVQTLVHFINPETVPKPCCAPTQLNAISVLYFDDSSNVILKKYRNMVVRACGCH	0.98 relative to wild type	0.94 relative to wild type	1.36 relative to wild type	0.9 relative to wild type
BMP-7 variant L90T (ligand, In conditioned media; numbering on mature BMP-7) STGGKQRSQNRSKTPKNQEALRMASVAENSSSDQRQACKKHELYVSFRDLGWQDWIIAPEGYAAYYCEGECAFPLNSYMNATNHAIVQTTVHFINPETVPKPCCAPTQLNAISVLYFDDSSNVILKKYRNMVVRACGCH	0.48 relative to wild type	0.66 relative to wild type	0.64 relative to wild type	0.29 relative to wild type
BMP-7 variant N76D (ligand, In conditioned media; numbering on mature BMP-7) STGGKQRSQNRSKTPKNQEALRMASVAENSSSDQRQACKKHELYVSFRDLGWQDWIIAPEGYAAYYCEGECAFPLDSYMNATNHAIVQTLVHFINPETVPKPCCAPTQLNAISVLYFDDSSNVILKKYRNMVVRACGCH	0.84 relative to wild type	1.13 relative to wild type	0.8 relative to wild type	0.87 relative to wild type
BMP-7 variant Q53K (ligand, In conditioned media; numbering on mature BMP-7) STGGKQRSQNRSKTPKNQEALRMASVAENSSSDQRQACKKHELYVSFRDLGWKDWIIAPEGYAAYYCEGECAFPLNSYMNATNHAIVQTLVHFINPETVPKPCCAPTQLNAISVLYFDDSSNVILKKYRNMVVRACGCH	0.7 relative to wild type	0.73 relative to wild type	2.03 relative to wild type	0.14 relative to wild type
BMP-7 variant Q53S (ligand, In conditioned media; numbering on mature BMP-7) STGGKQRSQNRSKTPKNQEALRMASVAENSSSDQRQACKKHELYVSFRDLGWSDWIIAPEGYAAYYCEGECAFPLNSYMNATNHAIVQTLVHFINPETVPKPCCAPTQLNAISVLYFDDSSNVILKKYRNMVVRACGCH	0.66 relative to wild type	1.04 relative to wild type	0.68 relative to wild type	1.26 relative to wild type
